Test results as given in US20060198851A1 (Janssen / Centocor, published 2006).
No end group written: not given here.

T1: biotinylated DAE peptide (immobilized Aβ peptide) (human, UniProt P05067 672-681, limits assumed, also: biotinylated, site not given here)
T1 construct: domain: Aβ peptide (bio-DAE peptide; bio-DAE10); Immobilized on streptavidin biosensor chips for BIAcore; also called bio-DAE peptide; bio-DAE10
T1 peptide (looked up): DAEFRHDSGY


Tests used:
[1] = target: T2, synthetic Aβ1-42 (aggregated in the ELISAs) (human, UniProt P05067 672-713); experiment: Aβ 1-42 binding ELISA
T2 construct: range 672-713; also called aggregated Aβ1-42; aggregated synthetic Aβ1-42

[2] = target: T2, synthetic Aβ1-42 (aggregated in the …); experiment: competitive Aβ1-42 ELISA; competitor: biotin conjugated m12A11Cγ2a at a fixed concentration
[3] = target: T1, biotinylated DAE peptide (immobilized …); experiment: BIAcore (SPR), biotinylated DAE peptide on streptavidin chip, antibody in solution; bivalent model, global analysis
[4] = target: T2, synthetic Aβ1-42 (aggregated in the …); experiment: competitive Aβ1-42 ELISA, competitor biotin conjugated m12A11Cγ2a (FIG. 12)

Row | EC50 (read off the curve) [1] | IC50 (read off the curve) [2] | Ka [3] | Kd [3] | koff [3] | kon [3] | IC50 fold against murine and chimeric 12A11 [4] | Binder
1 | ~0.04 µg/mL | – | – | – | – | – | – | humanized 3D6 (antibody, V domains shown) VH: EVQLVESGGGLVQPGGSLRLSCAGSGFTFSNYGMSWVRQAPGKGLEWVASIRSGGGRTYYSDNVKGRFTISRENAKNSLYLQMNSLRAEDTAVYYCVRYDHYSGSSDYWGQGTLVTVSS VL: DVVMTQSPLSLPVTLGQPASISCKSSQSLLDSDGKTYLNWLQQRPGQSPRRLIYLVSKLDSGVPDRFSGSGSGTDFTLKISRVEAEDVGVYYCWQGTHFPRTFGGGTKVEIKR
2 | – | ~1 µg/mL | 4.29e+07 M⁻¹ | 23.3 nM | 0.00343 s⁻¹ | 147000 M⁻¹ s⁻¹ | ≤ 2 fold | humanized 12A11 version 1 (antibody, V domains shown, Variable domains only; also called h12A11v1; 12A11v1) VH: QVQLVESGGGVVQPGRSLRLSCAFSGFSLSTSGMSVGWIRQAPGKGLEWLAHIWWDDDKYYNPSLKSRLTISKDTSKNTVYLQMNSLRAEDTAVYYCARRTTTADYFAYWGQGTTVTVSS VL: DVVMTQSPLSLPVTPGEPASISCRSSQSIVHSNGNTYLEWYLQKPGQSPQLLIYKVSNRFSGVPDRFSGSGSGTDFTLKISRVEAEDVGVYYCFQSSHVPLTFGQGTKLEIK
